From PMC9427763, “Structure and dynamics of Toll immunoreceptor activation in the mosquito Aedes aegypti” (Nature Communications, 2022) come the findings set out here.

Assay [1] addresses Aedes aegypti Spaetzle1C cystine-knot domain (residues 219-320), disulphide-linked dimer (Aedes aegypti). Description: mass photometry; 25 nM Toll5A with 25 nM Spz1C; PBS pH 7.4; Refeyn OneMP.
For assay [2], the target named is Aedes aegypti Toll5A ectodomain (residues 1-789) (Aedes aegypti). Description: AUC; sedimentation velocity, Toll5A ectodomain alone at ≥ 30 μM; 50,000 rpm, 20 °C; dimer to monomers.
The target of assay [3] is Aedes aegypti Spaetzle1C cystine-knot domain (residues 219-320), disulphide-linked dimer (Aedes aegypti). Briefly: AUC; sedimentation velocity, Toll5A with Spz1C at equimolar concentration or in excess; 50,000 rpm, 20 °C.
For assay [4] the target is unchanged. Description: mass photometry; 50 nM Toll5A with 50 nM Spz1C; PBS pH 7.4; Refeyn OneMP.
The target in assay [5] is T1, Aedes aegypti Spaetzle1C cystine-knot domain (residues 219-320), disulphide-linked dimer (Aedes aegypti, intermolecular disulphide bonds between Cys-94 and between Cys-59 of the two chains).
T1 chain: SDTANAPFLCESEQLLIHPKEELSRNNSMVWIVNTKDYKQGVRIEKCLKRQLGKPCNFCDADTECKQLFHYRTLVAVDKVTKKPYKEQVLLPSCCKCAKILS
Briefly: SPR; heterogeneous ligand fit, second site. (Surface plasmon resonance follows binding to a sensor surface in real time, without labels.)

Assay [6] concerns the target T1, Aedes aegypti Spaetzle1C cystine-knot …. Briefly: SPR; heterogeneous ligand fit, site 1.
Assay [7] has as its target Aedes aegypti Spaetzle1C cystine-knot domain (residues 219-320), disulphide-linked dimer (Aedes aegypti). Description: SPR; Biacore T200, CM5 chip; Spz1A, Spz1C and DmSpz proproteins and cys-knot ligands immobilised by amine coupling at pH 4.5; Toll ectodomains injected at 0.1-7.5 μM; 100 mM NaCl, 20 mM HEPES pH 7; 30 μl/min; two-state reaction model.
Assay [8] has the same target. Briefly: SEC-MALS; 50 μM Toll5A alone or saturated with Spz1C loaded on Superose 6; 50 mM Tris-HCl pH 7.5, 50 mM NaCl. For orientation: Size exclusion chromatography separates by hydrodynamic size, large species first.
Assay [9] concerns the target Aedes aegypti Toll5A ectodomain (residues 1-789) (Aedes aegypti). Described as above.
Assay [10] concerns the target T2, Drosophila melanogaster Toll (Toll1) ectodomain (Drosophila melanogaster, UniProt P08953 28-807).
T2 construct: Toll receptor 1, Drosophila melanogaster, purified ectodomain; also called DmToll1; DmToll
T2 sequence (looked up): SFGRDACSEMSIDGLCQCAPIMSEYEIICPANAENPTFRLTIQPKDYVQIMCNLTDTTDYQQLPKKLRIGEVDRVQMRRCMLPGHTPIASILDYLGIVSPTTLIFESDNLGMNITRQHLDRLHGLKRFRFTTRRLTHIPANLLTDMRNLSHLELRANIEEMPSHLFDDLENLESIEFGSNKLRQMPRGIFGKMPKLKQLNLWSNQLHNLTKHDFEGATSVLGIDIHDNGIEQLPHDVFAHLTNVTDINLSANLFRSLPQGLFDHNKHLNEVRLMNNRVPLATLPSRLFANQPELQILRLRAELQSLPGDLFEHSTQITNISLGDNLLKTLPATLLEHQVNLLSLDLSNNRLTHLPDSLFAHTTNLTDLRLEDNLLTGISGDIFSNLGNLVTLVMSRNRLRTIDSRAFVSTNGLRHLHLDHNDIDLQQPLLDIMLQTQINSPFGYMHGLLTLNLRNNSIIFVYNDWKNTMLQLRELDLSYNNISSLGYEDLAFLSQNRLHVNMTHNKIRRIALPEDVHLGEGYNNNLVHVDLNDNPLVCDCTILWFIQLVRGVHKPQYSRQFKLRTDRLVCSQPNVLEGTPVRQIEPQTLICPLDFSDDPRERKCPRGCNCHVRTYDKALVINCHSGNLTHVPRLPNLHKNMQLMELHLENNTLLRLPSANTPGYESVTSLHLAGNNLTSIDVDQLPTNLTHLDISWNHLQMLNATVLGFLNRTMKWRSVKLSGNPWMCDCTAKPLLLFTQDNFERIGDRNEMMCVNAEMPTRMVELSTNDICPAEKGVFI
Briefly: SPR; Biacore T200, CM5 chip; Spz1A, Spz1C and DmSpz proproteins and cys-knot ligands immobilised by amine coupling at pH 4.5; Toll ectodomains injected at 0.1-7.5 μM; 100 mM NaCl, 20 mM HEPES pH 7; 30 μl/min; two-state reaction model. The following applies: both partners purified.

“And” between values parts separate entries of the source, which are not always exact repeats. Equal entries are not always repeated.

B1: Aedes aegypti Toll5A ectodomain (residues 1-789) (receptor)
chain: TSTKRFTCPEESEASNCSCEEFPSKTHFYCPDFNPTLYVDVEDRMRVDFKCYDEPHDFKSLPNLAIGSVKLLTVVDCVLDDDRPILESFKFLEVADVRSFVYNNHENGIRYNAKYFEGMEQLENLTLARGVVSIDRDTFSGFLNLKRLTIEHNKLNLQPGTFEALSNLTYLGLVYNGLNEIQPGLFDGLESLEALSLSYNDIKSLSAGSFNGLSSLRMLNLRVNKIESFDANTFASLKELSRLEITLNPFVSLPRGLFSENKKLKTLILTNNRKLVTLPEELLANLKELTVVNLSHNGVGNLPESLLSGSSGIIELNLGYNRLNSLPEELLSDQPQLQVLNLDHNQLESIPDYFLERNVELQTLYLSHNRLRSLSEKAFTKLKNLKELHLENNQLQTIPQFLFSGTPKLEEIYMQNNQLALHANSFINEELSIADNDNTPFQVLQKLRILHLRNNSISTIFQDWYINNLEMQSLDLSFNKLPGLSYTQLQFQSNITLNLSNNEISQVLLIDDLDLQPYQRINVDLNHNPLNCNCNALKFIQLIQSKAEHGLQFNVDQLRCSEPPNLLDATMDQLQTKDLLCDFESADDCPKDCQCAMRLLDHTVIVNCSGRGLTEFPDLPIPSQLHEDFNALEVHVENNRLTKLPNLTKHNEITQLYARNNSIQNLLPHNIPSKLRIIDLSQNLLKMIDDSTLAQINRSSHLETIRLSQNQWLCDCPASSFLIFVQQNSRLISDMSAIRCHPSGKSLDSITVNELCFEDYTTENLYFQ
modifications: Asn-linked glycans visible at positions 151, 194, 481, 521, 634 and 687
As for B1, the stoichiometry N (Toll5A per Spz1C dimer) in [1] is 2; in assay [3], 1 and 2; in [8], 2. The stoichiometry N in assay [2] and in [9] was 2 each time. The same molecule gave a stoichiometry N (Toll5A per Spz1C dimer (1:1 complex)) in assay [4] of 1. Besides, in [4], the stoichiometry N (Toll5A per Spz1C dimer (2:1 complex)) is 2. In assay [4], this molecule returned a stoichiometry N (Toll5A per Spz1C dimer (2:2 complex)) of 1. Moreover, the results for the koff in [5] and in [6] were 0.00532 s⁻¹ and 0.0324 s⁻¹, respectively. This molecule displayed a dissociation constant (Kd) in assay [7] of 2 µM.

B2: Drosophila melanogaster Spaetzle (Spz1) (ligand)
chain: VGGSDERFLCRSIRKLVYPKKGLRADDTWQLIVNNDEYKQAIQIEECEGADQPCDFAANFPQSYNPICKQHYTQQTLASIKSDGELDVVQNSFKIPSCCKCALKTG
modifications: disulfide-linked dimer of the processed cys-knot form (C-106; limits from the UniProt chain feature, not given); the proprotein (26-326) was also immobilised
Take B2: the dissociation constant Kd in assay [10] was 0.03 to 0.08 µM.

Usually stoichiometry N stands for a count of units in the complex or per binding partner. The koff is the first-order rate constant of dissociation. The low end stands for slow dissociation, the high end for fast dissociation. In general, Kd refers to the equilibrium constant for the complex coming apart. High values mean lower affinity, low ones higher affinity.
